Assay [1] has as its target T1, biotinylated β-amyloid 1-40 (human Aβ1-40 peptide in solution, competition ELISA) (human, UniProt P05067 672-711, biotin, position not stated).
T1 construct: domain: β-amyloid (1-40)
In words: competition ELISA: antibody pre-incubated with biotinylated Aβ 1-40, free Aβ captured on immobilised mouse 6F6 (competitor); Exp 2. As for the experimental part: (§1) 6F6c and humanised antibodies H₁₁L2, H11L9, H11L10, H11L12 and H11L13 were assessed for their ability to bind Aβ1-40 peptide in solution and inhibit the interaction of human Aβ1-40 peptide with mouse 6F6 monoclonal antibody in a competition ELISA. A constant concentration of biotinylated β-amyloid 1-40 was pre-incubated with serial diluted amounts of humanised 6F6 antibody variants. The mixture including complexed and free amyloid was then added to wells containing immobilised mouse 6F6 monoclonal antibody and incubated for 15 minutes at room temperature. Plates were washed and the amount of free β-amyloid that was still available for binding the immobilised parental 6F6 monoclonal antibody was then detected using streptavidin-HRP conjugate.
(An ELISA detects its analyte on a solid surface through an enzyme-linked reagent.)

The target in assay [2] is T2, human β-amyloid 1-40 (human, UniProt P05067 672-711).
T2 construct: domain: β-amyloid (1-40); Used in solution over captured antibody (Biacore) or coated on ELISA plates; also called human Aβ peptide (1-40); Aβ peptide (1-40)
In words: SPR Biacore T100 at 37 C; antibody captured on anti-human IgG, Aβ 1-40 at 1-256 nM. As for the experimental part:
(§2) Anti-human IgG (Biacore BR-1008-39) was coupled to a CM5 biosensor chip by primary amine coupling. The anti-beta amyloid antibodies were captured on this surface. Beta amyloid (1-40) was then passed over at 256, 64, 16, 4 and 1 nM, with a 0 nM (ie buffer alone passed over the captured antibody surface) used for double referencing. […] The data was analysed using the 1:1 model inherent to the T100. The run was carried out at 25° C. and 37° C. using HBS-EP as the running buffer.
From this panel some constructs were also assessed for binding kinetics at physiological temperature.

Assay [3] concerns the target T3, C-terminally truncated β-amyloid peptide lacking residues V40 to G33 (residues 23-32) (UniProt P05067 694-703, not fully specified).
T3 construct: domain: β-amyloid residues 23-32; Stands also for the shorter peptides of the set ('and beyond'); not shown: SGSG linker lengthened to make a 22-mer
T3 peptide (looked up): Biotin-DVGSNKGAII-NH2
In words: SRU BIND biosensor, biotinylated peptides on streptavidin plate. An excerpt: (§3) The minimal binding epitope of the humanised monoclonal antibody H11L9 was fine mapped using SRU BIND plate reader (SRU Biosystems). Three peptide sets were generated, based on an 18 amino acid sequence for fine mapping of the epitope: a) an alanine scanning peptide set for which 10 of the residues 27-37 were replaced consecutively with an alanine residue; b) a set of N-terminally truncated peptides where one residue was removed successively from the N-terminus of the 18-mer peptide starting with residue 23 and c) a set of C-terminally truncated peptides where one residue was removed successively from the C-terminus of the 18-mer peptide starting with residue 40.
(§4) A streptavidin coated biosensor plate (SRU Biosystems) was washed with PBS and spun upside down to remove buffer and then washed with PBS, 0.1% tween 20 and 0.4% acetonitrile and spun upside down to remove residual buffer. Wells were resuspended in 100 ul of PBS, 0.1% tween 20 and 0.4% acetonitrile and read on the SRU plate reader to establish a baseline. […] The plate was then washed with PBS twice and then resuspended in 100 ul of PBS and the baseline re-measured. […] Binding of the antibodies was monitored. Plates were washed twice with PBS and resuspended in 100 ul of PBS, and the plates were re-measured and referenced back to the addition of antibody to look for weak binders that would be removed by the washing step. […]

The target in assay [4] is T4, N-terminally truncated β-amyloid peptide lacking residues D23 to I31 (residues 32-40) (UniProt P05067 703-711, not fully specified).
T4 construct: domain: β-amyloid residues 32-40; Stands also for the shorter peptides of the set ('and beyond'); not shown: SGSG linker lengthened to make a 22-mer
T4 peptide (looked up): Biotin-IGLMVGGVV-NH2
Described as above.
Text: as §3, §4

Assay [5] addresses T2, human β-amyloid 1-40. Kind of assay: SPR Biacore T100; antibody captured on anti-human IgG, Aβ 1-40 at 1-256 nM; 1:1 model. The procedure: as §2
For orientation: Surface plasmon resonance follows binding to a sensor surface in real time, without labels.

Assay [6] concerns the target T2, human β-amyloid 1-40. Kind of assay: SPR Biacore T100, 25 C; antibody captured on protein A, Aβ 1-40 at 2-256 nM; mean of three experiments. As for the experimental part:
The affinity of selected heavy and light chain combinations was determined using a Biacore T100 instrument. Three independent experiments were performed using humanised antibody immobilised via protein A surface Biacore chips and injection of β-amyloid 1-40 peptides. The chimeric molecule of 6F6 served as a reference molecule. For this Protein A was immobilised on a CM5 chip by primary amine coupling in accordance with manufactures recommendations. Anti-β-amyloid antibodies were captured on this surface and after a period of stabilisation human β-amyloid 1-40 was passed over at concentrations 256-2 nM in halving dilutions. A buffer injection over the captured antibody surface was used to double reference the data set in accordance with Biacore best practice. […] The work was carried out in HBS-EP at 25° C. Results are summarised in Table 13 as the mean of all three experiments.

The target of assay [7] is T1, biotinylated β-amyloid 1-40 (human …). In words: competition ELISA: antibody pre-incubated with biotinylated Aβ 1-40, free Aβ captured on immobilised mouse 6F6 (competitor); Exp 1. As for the experimental part:
as §1

Values joined by “and” are separate entries in the source; they are usually repeats but may differ in a detail not shown here. Identical values can stand only once. * marks the point of attachment. Biotin = O=C1N[C@H]2[C@H](CS[C@H]2CCCCC(=O)*)N1

B1: humanised antibody H11L9 (antibody, human IgG1, kappa)
heavy: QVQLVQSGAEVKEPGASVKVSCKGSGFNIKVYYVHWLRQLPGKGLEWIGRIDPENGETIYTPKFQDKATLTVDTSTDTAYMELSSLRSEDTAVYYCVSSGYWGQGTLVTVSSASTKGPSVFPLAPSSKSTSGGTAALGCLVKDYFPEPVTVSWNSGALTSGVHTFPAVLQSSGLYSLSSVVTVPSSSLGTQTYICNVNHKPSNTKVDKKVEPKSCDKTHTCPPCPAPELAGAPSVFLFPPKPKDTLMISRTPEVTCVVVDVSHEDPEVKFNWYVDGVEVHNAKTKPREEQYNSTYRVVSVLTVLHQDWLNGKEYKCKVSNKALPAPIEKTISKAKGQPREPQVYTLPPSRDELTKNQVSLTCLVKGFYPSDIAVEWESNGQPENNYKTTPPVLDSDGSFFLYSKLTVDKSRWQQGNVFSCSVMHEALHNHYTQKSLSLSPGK
light: DIVMTQSPLSNPVTPGEPASISCRSSKSLLHRNGITYLYWYLQKPGQSPQLLIYQMSNLASGVPDRFSSSGSGTDFTLKISRVEAEDVGVYYCAQNLELWTFGQGTKVEIKRTVAAPSVFIFPPSDEQLKSGTASVVCLLNNFYPREAKVQWKVDNALQSGNSQESVTEQDSKDSTYSLSSTLTLSKADYEKHKVYACEVTHQGLSSPVTKSFNRGEC
notes: Human IgG1 Fc mutated heavy chain, human kappa; also called H11L9(sup); H11L9(pur)
The IC50 is the concentration at which inhibition is half-maximal. A higher IC50 goes with weaker potency in that assay. A word on the Kd: it is the equilibrium constant for the complex coming apart. Regarding B1, the values for the concentration for half-maximal inhibition (IC50) in assay [1] and in assay [7] were 0.518 µg/mL and 0.588 µg/mL, respectively. Also, the dissociation constant (Kd) with human β-amyloid 1-40 [2] was 2.89 nM and 3.11 nM; in the assay with human β-amyloid 1-40 [5] it was 2.47 nM and 2.46 nM; with human β-amyloid 1-40 [6], 4.91 nM. The binding result in assay [3] and in assay [4] was “no binding (tested: 30 ug/ml)” in each case.

Source of the values: patent US20090162358A1 (GlaxoSmithKline, published 2009).
